Measured values: the supplement of paper PMC12855868

B1: library; numbered along this chain (parent)
chain: MAAAGGARLLRAASAVLGGPAGRWLHHAGSRAGSSGLLRNRGPGGSAEASRSLSVSARARSSSEDKITVHFINRDGETLTTKGKVGDSLLDVVVENNLDIDGFGACEGTLACSTCHLIFEDHIYEKLDAITDEENDMLDLAYGLTDRSRLGCQICLTKSMDNMTVRVPETVADARQSIDVGKTS

Variants of: B1
Experiment: scaled log2 fold change in cell abundance, elesclomol vs control (0 = silent mean, 1 = nonsense mean) (scaled log2 ratio); higher = higher viability under elesclomol (loss of FDX1 cuproptosis function)
Settings: glucose 10 mM
[1] = with ABC1 FDX1 KO, elesclomol 5 nM, 14 days
[2] = with HEK293T FDX1 KO, elesclomol 40 nM, 11 days
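Note: variant abundance is its share of total variant reads in each endpoint sample, from next-generation sequencing of the integrated ORF PCR-amplified out of genomic DNA.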

Variant	scaled log2 fold change [1]	scaled log2 fold change [2]
D132K	-0.0835	0.943
D132I	-0.789	
E48N	0.628	1.08
E48I	0.367	0.905
S34K	0.146	-0.467
S34F	0.0028	-0.301
S34P	-0.325	-0.116
S34M	-0.108	0.216
S54W	0.208	-0.341
S54R	0.322	-0.406
S54N	-0.135	-0.939
L25E	-0.135	-0.0782
L25Q	-0.0213	-1.08
L79M	-0.15	-0.649
L79I	-0.0225	-0.761
M163T	-0.131	0.00152
M163L	0.385	0.864
G5T	-0.0306	0.915
G5K	0.104	0.00379
D101T	-0.218	-0.744
S159P	-1.13	-0.284
S159C	0.095	-0.0429
I118D	0.0488	0.0453
K158W	0.161	-0.562

Variant	scaled log2 fold change [1]	scaled log2 fold change [2]
E133Q	-0.239	-0.406
E133R	0.274	0.00388
I72H	0.00982	-0.581
I72S	-0.00568	0.815
K126M	0.305	0.341
S56E	0.234	0.0723
S56Y	-0.541	0.934
G33H	0.23	0.469
V92S	0.501	-0.213
V92H	0.295	0.314
V92F	0.0178	0.0606
M137N	0.119	
T109E	-0.14	
T109L	-0.315	0.377
R11S	0.406	-0.404
V165E	1.06	1.35
L53I	-1.25	
K66H	0.0524	-0.795
H116C	0.0577	0.973
Q176I	0.324	-0.471
G151M	1.01	1.15
S52F	0.556	
S52G	0.447	-0.133
R23D	0.199	

Variant	scaled log2 fold change [1]	scaled log2 fold change [2]
R23P	-0.138	0.465
T131N	0.126	-0.681
T131I	-0.0956	0.347
T131R	-0.448	0.487
R74V	0.486	
T80G	0.0761	-0.279
A141V	0.00876	0.0536
A141F	-0.22	1.03
A141H	0.134	-0.527
I67N	0.44	0.681
I67C	0.2	-0.121
R149G	0.658	0.436
R149M	0.689	0.499
D75E	0.271	0.128
D75Q	0.457	
D75V	-0.11	-0.372
L140I	-0.0613	0.225
I123R	-0.34	0.123
I123F	-0.346	0.312
I123Y	-0.0557	-0.336
C106R	1.07	1.14
G19I	0.0203	-0.0307
G19V	-0.0119	1.01
V69N	1.01	0.921

Variant	scaled log2 fold change [1]	scaled log2 fold change [2]
V69W	0.674	0.931
A21G	0.106	-0.283
A21Y	-0.187	
A21F	-0.268	0.113
S184Q	-0.0164	-0.0365
S184H	0.0751	-0.0277
A47I	0.83	0.523
A47H	0.813	1.05
D128W	-0.0394	-0.406
D128R	-1.26	-0.293
D128S	-0.519	1.1
D128A	-0.474	-0.104
C112G	1.15	1.18
G102L	0.0952	-0.752
G102W	0.225	0.879
G102P	0.0181	-0.00988
S14K	-0.193	0.475
T81K	0.0566	0.178
T81P	0.103	1.32
T81N	0.308	0.885
R41N	0.199	-0.371
R41K	0.264	-0.114
R41L	0.167	0.278
A32Y	0.0969	0.822

Variant	scaled log2 fold change [1]	scaled log2 fold change [2]
V93I	0.123	-0.612
V93H	-0.124	-0.875
E134G	1.21	0.684
G83N	0.304	-0.106
G83D	0.697	0.804
G83T	0.0201	-0.4
H122F	-0.949	
D146W	0.114	0.978
D146H	-0.228	-0.639
D146K	0.0568	-0.151
C152A	1.22	1.33
C152K	1.05	0.942
L89A	-0.0423	
G29P	-0.415	-0.6
G29E	0.324	0.361
G29I	0.147	-1.13
K84Q	0.0208	-0.794
A172R	-0.163	0.124
V180Y	-0.084	0.873
V180K	-0.341	0.164
V180A	-0.00321	2.72
V180I	0.213	
R166C	-0.501	-0.211
R166W	-0.00581	0.748
